The values below come from patent publication US20030194391A1 (published 2003).

Test [1] deals with T1, human type-2 IL-4 receptor expressed by the human lung fibroblast cell line A549 (human, UniProt P24394 26-825; P78552 22-427).
T1 sequence (looked up) 1: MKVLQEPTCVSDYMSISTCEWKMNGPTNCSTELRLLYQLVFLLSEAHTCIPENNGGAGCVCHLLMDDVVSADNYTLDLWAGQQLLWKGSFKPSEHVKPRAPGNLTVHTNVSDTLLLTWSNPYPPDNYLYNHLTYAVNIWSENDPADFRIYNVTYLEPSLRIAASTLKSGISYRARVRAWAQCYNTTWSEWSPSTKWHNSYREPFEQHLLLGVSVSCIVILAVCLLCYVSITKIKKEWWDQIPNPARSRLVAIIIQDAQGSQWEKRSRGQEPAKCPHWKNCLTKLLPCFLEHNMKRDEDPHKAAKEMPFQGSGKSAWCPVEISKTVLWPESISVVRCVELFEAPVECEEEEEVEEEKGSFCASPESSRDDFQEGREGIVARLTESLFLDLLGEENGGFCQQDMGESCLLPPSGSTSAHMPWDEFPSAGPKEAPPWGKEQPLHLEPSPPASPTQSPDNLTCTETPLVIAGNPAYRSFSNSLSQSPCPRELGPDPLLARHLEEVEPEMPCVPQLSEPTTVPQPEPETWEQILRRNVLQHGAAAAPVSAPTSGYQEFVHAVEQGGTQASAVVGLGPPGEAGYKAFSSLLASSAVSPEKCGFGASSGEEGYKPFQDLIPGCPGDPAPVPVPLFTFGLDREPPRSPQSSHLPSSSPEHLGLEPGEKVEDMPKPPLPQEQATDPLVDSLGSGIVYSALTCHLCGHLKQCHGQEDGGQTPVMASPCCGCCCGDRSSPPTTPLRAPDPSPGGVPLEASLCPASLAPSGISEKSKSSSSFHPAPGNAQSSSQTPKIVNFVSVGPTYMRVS
T1 sequence (looked up) 2: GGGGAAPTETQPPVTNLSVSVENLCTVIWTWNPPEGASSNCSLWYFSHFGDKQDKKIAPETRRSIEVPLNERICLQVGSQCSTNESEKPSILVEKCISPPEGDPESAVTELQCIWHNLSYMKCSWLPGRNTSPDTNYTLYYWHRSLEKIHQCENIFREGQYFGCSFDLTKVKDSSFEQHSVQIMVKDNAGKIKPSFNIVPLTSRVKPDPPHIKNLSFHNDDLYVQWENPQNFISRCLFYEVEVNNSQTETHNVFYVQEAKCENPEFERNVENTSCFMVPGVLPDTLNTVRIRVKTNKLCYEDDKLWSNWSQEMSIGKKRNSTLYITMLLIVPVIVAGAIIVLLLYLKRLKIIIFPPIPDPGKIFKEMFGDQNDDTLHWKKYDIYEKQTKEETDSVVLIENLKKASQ
The experiment in a line: cell-based or functional assay.

For test [2], the target named is T2, mIL-13R2-Fc (catalogue number 539-IR-100, R+D Systems) (mouse, UniProt O88786 22-334).
T2 construct: Bought; also called mIL-13Rα2; mouse IL-13 receptor; not shown: Fc part; captured on plates with anti-human IgG
T2 sequence (looked up): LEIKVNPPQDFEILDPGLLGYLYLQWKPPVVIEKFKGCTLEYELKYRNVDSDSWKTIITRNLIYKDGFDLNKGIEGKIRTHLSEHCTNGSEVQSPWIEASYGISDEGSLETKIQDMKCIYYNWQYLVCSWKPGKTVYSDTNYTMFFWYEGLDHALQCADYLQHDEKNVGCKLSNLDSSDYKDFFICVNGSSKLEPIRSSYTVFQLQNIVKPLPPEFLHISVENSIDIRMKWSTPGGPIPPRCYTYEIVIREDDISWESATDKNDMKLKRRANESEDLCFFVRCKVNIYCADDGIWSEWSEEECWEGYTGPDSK
Description: ELISA, receptor-Fc captured on anti-human IgG, detection with biotinylated anti-mIL-13. How it is done:
(§1) ELISAs were set up to determine whether cIL-13 could bind to either of the known mouse IL-13 receptors (mIL-13R1 or mIL-13R2). 96-well Maxisorp plates were coated with anti-human IgG (catalogue number I-3382, Sigma Aldrich) in carbonate-bicarbonate buffer overnight at 4° C. Plates were then blocked with 3% BSA/TBST for 1 hour at RT, washed 3 times in TBST, and incubated with mIL-13R1-Fc or mIL-13R2-Fc (catalogue numbers 491-IR-200 and 539-IR-100 respectively, R+D Systems) for 1 hour at RT. After washing, plates were incubated with dilutions of mIL-13 or cIL-13 or GST-cIL-13 for 1 hour at RT, washed again and incubated with biotinylated anti-mIL-13 (catalogue number BAF413, R+D Systems). Following further washing and incubation with streptavidin conjugated horse-radish peroxidase, the plates were developed with 0-phenylenediamine dihydrochloride peroxidase substrate for 30 minutes.
Background: An ELISA detects its analyte on a solid surface through an enzyme-linked reagent.

The target in test [3] is T3, mIL-13R1-Fc (catalogue number 491-IR-200, R+D Systems) (mouse, UniProt O09030 26-340).
T3 construct: Bought; also called mIL-13Rα1; mouse IL-13 receptor; not shown: Fc part; captured on plates with anti-human IgG
T3 sequence (looked up): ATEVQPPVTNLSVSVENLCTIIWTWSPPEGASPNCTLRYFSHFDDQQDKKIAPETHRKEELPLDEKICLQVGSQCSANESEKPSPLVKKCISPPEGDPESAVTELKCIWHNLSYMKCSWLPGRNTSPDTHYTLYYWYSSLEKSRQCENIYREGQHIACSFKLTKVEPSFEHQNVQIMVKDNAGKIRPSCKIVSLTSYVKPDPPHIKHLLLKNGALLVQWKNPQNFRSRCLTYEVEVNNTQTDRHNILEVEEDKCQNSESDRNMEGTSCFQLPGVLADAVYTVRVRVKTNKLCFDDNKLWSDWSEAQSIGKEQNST
The description is as above. On the procedure: as §1

B1: chimaeric IL-13 (free cIL-13 generated from GST-cIL-13 by thrombin cleavage) (ligand)
chain: GPVPRSVSLPLTLRELIEELVNITQDQTPLCNGSMVWSVDLAAGGYCAALESLTNISNCNAIEKTQRMLGGLCNRKAPTTVSSLPDTKIEVAQFVKDLLSYTKQLFRHGPF
notes: also called mouse chimaeric IL-13 vaccine construct
With B1, the “fold decrease in bioactivity against mIL-13 (STAT6 phosphorylation in A549 cells)” value in test [1] was around 5 fold. In addition, the binding result in test [2] and in test [3] was “binds” in each case.

B2: GST-cIL-13 (genetic fusion protein of glutathione-S-transferase and chimaeric IL-13) (other)
chain: B1 chain
notes: Expressed in E. coli BLR from pGEX4T3-cIL-13; also called GST-cIL-3; not shown: glutathione-S-transferase as encoded by vector pGEX4T3 (Amersham Pharmacia); short spacer which contains the recognition site for thrombin
As for B2, the binding result in test [2] and in test [3] was “binds” throughout.
